This note sets out measurements from the supplement of paper PMC10567573.

The nature of this data set: protein stability index of a GFP-peptide fusion (GPS, HEK-293T) (PSI 1-6); higher = more stable. Conditions: c terminus: a fixed tail appended.

± gives the standard deviation.
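Also: 24-mer peptide tiles fused after GFP, lentivirally expressed, FACS-sorted into six equal bins by GFP/DsRed ratio, decoded by Illumina sequencing, PSI is the read-weighted mean bin number.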

On to INQSFTGAERKAALCELLEKETQI [IQUB], for which the protein stability index by setting is: (treatment: DMSO) 4.38 ± 0.23; (treatment: MLN4924 1 uM, 8 h) 4.01 ± 0.19.

Take INQVLLFLLIVTLCVILYKKVHKG [GLT8D2]: the protein stability index (treatment: DMSO) came to 3.12 ± 0.29 and the protein stability index (treatment: MLN4924 1 uM, 8 h) was determined as 3.04 ± 0.9.

On to IPEGLNYSENAPFHLSLFQGWMNL [PLD5], for which the protein stability index (treatment: DMSO) came out at 2.2 ± 0.55 and the protein stability index (treatment: MLN4924 1 uM, 8 h) amounted to 1.91 ± 0.38.

Regarding IPTVKPLKPRPEPPKKPSNWRRKH [ZC2HC1A], the protein stability index reads like this: (treatment: DMSO) 4.2 ± 0.24; (treatment: MLN4924 1 uM, 8 h) 4.24 ± 0.11.

For IQKNKLKLTREQEELEEALEVERQ [MNAT1], the protein stability index reads like this: (treatment: DMSO) 5.23 ± 0.31; (treatment: MLN4924 1 uM, 8 h) 5.24 ± 0.17.

For the sequence ISESGGLNWKMTLCLLVAWSIVGM [SLC6A17], the protein stability index reads like this: (treatment: DMSO) 2.71 ± 0.28; (treatment: MLN4924 1 uM, 8 h) 2.83 ± 0.67.

Turning to ISQQDPESDSQGQGNGLFYSSGPQ [ZC2HC1C], the protein stability index is 4.83 ± 0.48 (treatment: DMSO) and 5.08 ± 0.19 (treatment: MLN4924 1 uM, 8 h).

Regarding IVGSQGAEGALEEVPLEVLRQRES [TBC1D10A], the protein stability index (treatment: DMSO) amounted to 5.17 ± 0.34 and the protein stability index (treatment: MLN4924 1 uM, 8 h) amounted to 5.31 ± 0.26.

IYGHVTLMRAQRNYMVQTEDQYIF [PTPRD]: the protein stability index was 2.61 ± 0.58 (treatment: DMSO) and 2.87 ± 1.1 (treatment: MLN4924 1 uM, 8 h).

In the case of KAENARLVVNIDNAKLASDDFRSK [KRT34], the protein stability index is, setting by setting: (treatment: DMSO) 4.62 ± 0.16; (treatment: MLN4924 1 uM, 8 h) 4.71 ± 0.14.

As to KAFGVGVAYRSLGRFEQLGKTAAS [FSD1], the protein stability index runs as follows: (treatment: DMSO) 2.77 ± 0.3; (treatment: MLN4924 1 uM, 8 h) 2.69 ± 0.24.

As to KAGRRMFPACRVSVTGLDPEARYL [TBX6], the protein stability index runs as follows: (treatment: DMSO) 2.36 ± 0.56; (treatment: MLN4924 1 uM, 8 h) 1.86 ± 0.2.

Regarding KALEILRKDFSELRSAGVEQLMYI [FAM50A], the protein stability index came to 2.55 ± 0.31 (treatment: DMSO) and 2.38 ± 0.49 (treatment: MLN4924 1 uM, 8 h).

On to KAMAKLSKLASNGTPMGTFAPLWE [FCHO1], for which the protein stability index is 2.23 ± 0.41 (treatment: DMSO) and 2.48 ± 0.12 (treatment: MLN4924 1 uM, 8 h).

KDFLTGMCLFLQSLRQKQPERLCS [GMPPB] registered a protein stability index (treatment: DMSO) of 2.25 ± 0.44 and a protein stability index (treatment: MLN4924 1 uM, 8 h) of 2.23 ± 0.36.

Consider KDMSESQDEVPDEVENQFILRLPL [TAF7L], for which the protein stability index is, setting by setting: (treatment: DMSO) 4.41 ± 0.26; (treatment: MLN4924 1 uM, 8 h) 4.85 ± 0.15.

KDRASPADLRTNHTLNNLVEKLLR [TRIM35]: the protein stability index came out at 2.44 ± 0.27 (treatment: DMSO) and 2.48 ± 0.13 (treatment: MLN4924 1 uM, 8 h).

Consider KEACDQHGPDLYPKFKKWCDDYFF [CPOX], for which the protein stability index runs as follows: (treatment: DMSO) 2.31 ± 0.27; (treatment: MLN4924 1 uM, 8 h) 2.58 ± 0.32.

Regarding KEDASEFQILKYLFQIDVYDFMNS [MIA2], the protein stability index stood at 2.5 ± 0.65 (treatment: DMSO) and 2.76 ± 0.24 (treatment: MLN4924 1 uM, 8 h).

On to KEHPDVQLLEDAILIIQGVLSDIN [NET1], for which the protein stability index is, setting by setting: (treatment: DMSO) 2.49 ± 0.73; (treatment: MLN4924 1 uM, 8 h) 2.47 ± 0.23.

KEKCVSLPDCCHGSELRDFPGRPM [DLC1]: the protein stability index was 3.82 ± 0.33 (treatment: DMSO) and 3.76 ± 0.4 (treatment: MLN4924 1 uM, 8 h).

The sequence KEMSKVWNDLRPKLSCLFAGPHST [SNX8] showed a protein stability index (treatment: DMSO) of 2.63 ± 0.7 and a protein stability index (treatment: MLN4924 1 uM, 8 h) of 2.79 ± 0.59.

On to KEQLSNDRETQEGKPPTAHLDRTS [ELOA2], for which the protein stability index was 5.56 ± 0.32 (treatment: DMSO) and 5.59 ± 0.16 (treatment: MLN4924 1 uM, 8 h).

Consider KESRAQTLQNGRRHIHHLGNQLQL [BRF1], for which the protein stability index (treatment: DMSO) turned out to be 3.55 ± 0.15 and the protein stability index (treatment: MLN4924 1 uM, 8 h) is 3.63 ± 0.31.

Consider KESSPSGSKSQRYSGAYGASVSDE [CHCHD3], for which the protein stability index is, setting by setting: (treatment: DMSO) 5.31 ± 0.5; (treatment: MLN4924 1 uM, 8 h) 4.99 ± 0.12.

Turning to KFLAKVNGSDPRSFPLWYEEALKD [MAGEA10], the protein stability index (treatment: DMSO) was found to be 2.62 ± 0.39 and the protein stability index (treatment: MLN4924 1 uM, 8 h) stood at 3.06 ± 0.4.

For KHSTIFDVGENLTVPDEFTVEERQ [SLC25A25], the protein stability index is, setting by setting: (treatment: DMSO) 5.07 ± 0.22; (treatment: MLN4924 1 uM, 8 h) 4.98 ± 0.22.

Take KIIQLGLTFMNEQGEYPPGTSTWQ [CNOT7]: the protein stability index runs as follows: (treatment: DMSO) 2.23 ± 0.2; (treatment: MLN4924 1 uM, 8 h) 2.19 ± 0.18.

On to KILEVVGRYSVHNAGISFSVKKQG [MLH1], for which the protein stability index reads like this: (treatment: DMSO) 2.19 ± 0.93; (treatment: MLN4924 1 uM, 8 h) 1.91 ± 0.51.

KILRSMSRKVTTNKLLLSIIILLE [VTI1B] showed a protein stability index (treatment: DMSO) of 2.48 ± 0.53 and a protein stability index (treatment: MLN4924 1 uM, 8 h) of 2.32 ± 0.42.

Regarding KIRRGQFCIPEHISPKARCLIRSL [TRIB1], the protein stability index (treatment: DMSO) was 2.29 ± 0.48 and the protein stability index (treatment: MLN4924 1 uM, 8 h) stood at 2.29 ± 0.4.

For KKAYDYFQAKKIPIVSSLADPLDT [PDZK1], the protein stability index came out at 3.64 ± 0.23 (treatment: DMSO) and 3.88 ± 0.35 (treatment: MLN4924 1 uM, 8 h).

Consider KKEEPEPETEAVSSSQEIPTMPQP [ZMYND11], for which the protein stability index runs as follows: (treatment: DMSO) 5.45 ± 0.47; (treatment: MLN4924 1 uM, 8 h) 5.55 ± 0.23.

On to KKKSILMKQLQQQQHSDKTSLQGL [ISL2], for which the protein stability index worked out at 3.86 ± 0.2 (treatment: DMSO) and 4.04 ± 0.27 (treatment: MLN4924 1 uM, 8 h).

With KKLTGGANWQPKVAPATWSAGVPP [SNAP91], the protein stability index reads like this: (treatment: DMSO) 3.27 ± 0.18; (treatment: MLN4924 1 uM, 8 h) 3.34 ± 0.14.

Regarding KLQDVFEMRFAKMPDEPVEAPALP [BRD3], the protein stability index (treatment: DMSO) worked out at 3.49 ± 0.23 and the protein stability index (treatment: MLN4924 1 uM, 8 h) turned out to be 3.62 ± 0.34.

Take KMAAFHGAGLKRYLLTVMAAAAKA [ADAMTS4]: the protein stability index by setting is: (treatment: DMSO) 2.43 ± 0.21; (treatment: MLN4924 1 uM, 8 h) 2.58 ± 0.5.

In turn, KMGLQERSETFLEVWGNALLRPPV [DNAAF3] returned a protein stability index (treatment: DMSO) of 2.52 ± 0.55 and a protein stability index (treatment: MLN4924 1 uM, 8 h) of 2.49 ± 0.34.

KMNPKLKTLLAIGGWNFSTQKFTD [CHIT1] came in with a protein stability index (treatment: DMSO) of 2.37 ± 0.11 and a protein stability index (treatment: MLN4924 1 uM, 8 h) of 2.3 ± 0.39.

Regarding KMREFTKTIKRPFGVKYNPYTRSI [TPH1], the protein stability index was found to be 2.25 ± 0.21 (treatment: DMSO) and 2.31 ± 0.17 (treatment: MLN4924 1 uM, 8 h).

Consider KNWWVRGILTLAMIAFFFIIIYLG [CDS2], for which the protein stability index came to 3.07 ± 0.36 (treatment: DMSO) and 2.85 ± 0.52 (treatment: MLN4924 1 uM, 8 h).

Turning to KPDKAVSIIECDMNVDFDAPLGYK [UFD1], the protein stability index (treatment: DMSO) amounted to 3.94 ± 0.34 and the protein stability index (treatment: MLN4924 1 uM, 8 h) came to 4.21 ± 0.2.

KPDSVGLPPCAVRNLQDLARIYIR [PCMTD1] gave a protein stability index (treatment: DMSO) of 2.94 ± 0.085 and a protein stability index (treatment: MLN4924 1 uM, 8 h) of 2.85 ± 0.1.

Take KPEDTAEDLTAKRKRMKMDKTCSK [FAM9B]: the protein stability index amounted to 5.3 ± 0.2 (treatment: DMSO) and 5.43 ± 0.11 (treatment: MLN4924 1 uM, 8 h).

Regarding KPENISLRNKLRELCVKLMFLHPV [SMG5], the protein stability index is 2.9 ± 0.52 (treatment: DMSO) and 3.06 ± 0.34 (treatment: MLN4924 1 uM, 8 h).

As for KPGFLAPRDLPKHTPLISKSQSLR [RASAL3], the protein stability index reads like this: (treatment: DMSO) 3.61 ± 0.2; (treatment: MLN4924 1 uM, 8 h) 3.8 ± 0.47.

Take KPHRCHNCGKSFSRLTALTLHQRT [ZNF449]: the protein stability index (treatment: DMSO) turned out to be 2.46 ± 0.096 and the protein stability index (treatment: MLN4924 1 uM, 8 h) was determined as 2.78 ± 0.76.

For the sequence KPIHTTILNPHVHVIGEDAACIAY [CAMK2B], the protein stability index is 2.77 ± 0.26 (treatment: DMSO) and 2.98 ± 0.18 (treatment: MLN4924 1 uM, 8 h).

For KPPETSVPVVTPTASTAPPVPATA [SNAP91], the protein stability index reads like this: (treatment: DMSO) 5.34 ± 0.35; (treatment: MLN4924 1 uM, 8 h) 5.37 ± 0.18.

The sequence KQGELPREVRRAQARLLNPSATRA [NOP53] came in with a protein stability index (treatment: DMSO) of 4.42 ± 0.46 and a protein stability index (treatment: MLN4924 1 uM, 8 h) of 4.47 ± 0.19.

In the case of KQGSMNFRFIPVLFPNAKKEHVPT [TRAF3IP2], the protein stability index by setting is: (treatment: DMSO) 2.41 ± 0.41; (treatment: MLN4924 1 uM, 8 h) 2.48 ± 0.49.

For KRLREEEAARLFKQIVSAVAHCHQ [TRIB1], the protein stability index (treatment: DMSO) is 2.4 ± 0.36 and the protein stability index (treatment: MLN4924 1 uM, 8 h) is 2.4 ± 2.

KRPYAKELETVDFKDKLEETKGQI [SERPINB5]: the protein stability index by setting is: (treatment: DMSO) 5.12 ± 0.21; (treatment: MLN4924 1 uM, 8 h) 5.23 ± 0.14.
